The values below come from patent publication US20250243263A1.

Test [1] deals with Tau225-240 phospho-peptide (pT231) (human). Briefly: BLI.
Test [2] addresses Tau217-234 phospho-peptide (pT217/pT220/pT231) (human). Put plainly: BLI.
In test [3] the target is tPeptide 5 (204-222) (human). Briefly: one point ELISA.
In test [4] the target is Tau204-222 phospho-peptide (pT212) (human). Briefly: one point ELISA.
The target of test [5] is Tau204-222 phospho-peptide (pT217) (human). Briefly: one point ELISA.
The target of test [6] is Tau204-222 phospho-peptide (pS214) (human). Put plainly: one point ELISA.
Test [7] has as its target Tau204-222 phospho-peptide (pT212/pS214/pT217) (human). Put plainly: one point ELISA.
The target in test [8] is Tau204-222 phospho-peptide (pS214/pT217) (human). Put plainly: one point ELISA.
Test [9] deals with Tau204-222 phospho-peptide (pT212/pS214) (human). Briefly: one point ELISA.
Test [10] has as its target Tau204-222 phospho-peptide (pT212/pT217) (human). Put plainly: one point ELISA.
The target of test [11] is AT8 peptide (amino acids 195-215 of tau) (human). Briefly: BLI (Octet), phospho-peptide on streptavidin tips.
The target in test [12] is Tau191-214 phospho-peptide (pS199/pS202) (human). Briefly: one point ELISA.
For test [13], the target named is Tau191-214 phospho-peptide (pT205) (human). Put plainly: one point ELISA.
In test [14] the target is Tau191-214 phospho-peptide (pS199/pT205) (human). Put plainly: one point ELISA.
The target of test [15] is pS199-old (SCBio-4PEG-Peptide, Tau191-214) (human). Briefly: one point ELISA.
Test [16] concerns the target Tau191-214 phospho-peptide (pS202/pT205) (human). Briefly: one point ELISA.
Test [17] concerns the target Tau191-214 phospho-peptide (pS202) (human). Briefly: one point ELISA.
For test [18], the target named is Tau191-214 phospho-peptide (pS199/pS202/pT205) (human). Put plainly: one point ELISA.
The target of test [19] is Tau191-214 phospho-peptide (pS199) (human). Put plainly: one point ELISA.
Sequence of Tau191-214 phospho-peptide (pS199) (human) (peptide, as listed by the source): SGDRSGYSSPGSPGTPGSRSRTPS

Sequence of AT8 peptide (amino acids 195-215 of tau) (human) (peptide, as listed by the source): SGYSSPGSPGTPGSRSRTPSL

Regarding AT180 (antibody), the Kd came out at 6 pM in [1] and 5 pM in [2].

In turn, IPN002-hIgG1 (antibody) registered an OD (450 nm) in test [3] of 0.281 OD450.

PT3-hIgG1 (antibody): the OD (450 nm) in test [4] was determined as 3.16 OD450; in [5] it was 3.13 OD450; in [6], 3.14 OD450; in test [7], 3.17 OD450; in test [8], 3.13 OD450; in [9], 3.14 OD450. Besides, the OD (450 nm) in [10] worked out at 3.16 OD450; in test [3] it was 2.81 OD450.

Consider “anti-tau antibody AT8 (ThermoFisher, Waltham, MA)”, for which the Kd in [11] came out at 309 pM. The OD (450 nm) in test [12] came out at 2.39 OD450; in test [13], 0.065 OD450; in test [14] it was 0.139 OD450; in test [15], 0.056 OD450; in test [16], 2.94 OD450; in test [17] it was 0.058 OD450. The OD (450 nm) was found to be 3.07 OD450 in test [18] and 0.056 OD450 in [19].

In the case of “anti-tau antibody AT100 (ThermoFisher, Waltham, MA)”, the OD (450 nm) in test [4] is 0.069 OD450; in [5] it was 0.068 OD450; in [6], 0.065 OD450; in [7], 0.187 OD450; in test [8] it was 0.067 OD450; in test [9] it was 0.071 OD450. In [10], this substance had an OD (450 nm) of 0.069 OD450.

As to hIgG1 isotype control (antibody), the OD (450 nm) came to 0.06 OD450 in test [4]; 0.083 OD450 in test [5]; 0.062 OD450 in [12]; 0.061 OD450 in test [6]; 0.054 OD450 in test [13]; 0.053 OD450 in [7]. In addition, the OD (450 nm) in [8] amounted to 0.059 OD450; in test [9], 0.059 OD450; in test [10], 0.057 OD450; in test [14], 0.09 OD450; in test [15], 0.06 OD450; in test [16], 0.249 OD450. Also, the OD (450 nm) in test [17] worked out at 0.055 OD450; in [3], 0.141 OD450; in test [18], 0.245 OD450; in test [19], 0.058 OD450.
